Measurements reported in patent publication US10444224B2, “Method for RNA detection and quantification” (Cornell University, priority 2011, dated 2019).
Changes are numbered by the printed parent chain. Several values for one entry are separate records, joined by “and”; a condition that tells them apart may be missing. Identical values can stand only once. Entries after “also recorded” stand apart in the source; their conditions may differ.

Assays:
[1] = Bell et al. 2000; cited from earlier work
[2] = Photobleaching curves on glass slides under continuous illumination; format: physicochemical; settings: immobilized on glass slides, 130 W mercury lamp, 45 min
Protocol: Photobleaching experiments were performed on fluorescein, EGFP and 24-2-DFHBI complexes immobilized on chemically functionalized glass slides (MicroSurfaces). To immobilized fluorescein, fluorescein cadaverine (Sigma-Aldrich) was reacted in 40 mM HEPES pH 8.0 with NHS-activated glass slides for 2 h at 25° C. Slides were then incubated in 100 mM Tris pH 8.0 to quench any unreacted NHS-activated sites. […] To immobilize 24-2-DFHBI, a 3′ amine modified 21-nt DNA oligo (sequence: 5′-GGTTGTAAGTTTTAGGTTGCC-NH2-3′, SEQ ID NO: 45; Integrated DNA Technologies) was reacted with NHS-activated glass slides. Unreacted NHS-activated sites were blocked as above. 24-2 RNA was then in vitro synthesized with a 5′ overhang complimentary to the immobilized DNA oligo. Purified 24-2 RNA was denatured at 65° C. and incubated with the slide at 25° C. for 20 min to allow hybridization to the immobilized oligonucleotide. […] Images were captured every 10 s with a CoolSnap HQ2 CCD camera through a 10× air objective mounted on a Nikon TE2000 microscope and analyzed with the NIS-Elements software. […] Total fluorescence was then plotted against exposure time and normalized to the maximum intensity of each fluorophore.

[3] = Sensor activation rate, ADP sensor; format: biochemical; settings: 1 mM ADP, 37° C.
Protocol: (§1) A solution of RNA sensor (1 μM) and DFHBI (10 μM) was incubated with continuous stirring at 37° C. in a buffer containing 40 mM HEPES pH 7.4, 125 mM KCl and 1 mM MgCl2. The target metabolite (1 mM) was then rapidly added to the stirring solutions and fluorescence emission was recorded over a 15 min period under continuous illumination at 37° C. using the following instrumental parameters: excitation wavelength, 460 nm; emission wavelength, 500 nm; increment of data point collection, 0.05 s; slit widths, 10 nm. The fluorescence increase was then plotted against exposure time and normalized to the maximum intensity of each fluorophore.

[4] = Spinach-based RNA sensor fluorescence in response to ADP; format: biochemical
Protocol: (§2) Dose-response curves for each sensor in response to the target metabolite were determined by measuring the increase in fluorescence as a function of increasing target concentration in the presence of a fixed concentration of RNA sensor (10-50 nM) and a fixed concentration of fluorophore (10 μM). Curves were determined using a nonlinear regression analysis in Prism software and matched by least squares fitting to a standard dose-response model for 1:1 complexation.
(§3) The optimal sensors were chosen based on their low fluorescence in the absence of metabolite and the relative increase in fluorescence upon binding to the metabolite.

[5] = test system: endogenous ADP levels in living E. coli cells; assay: Live cell imaging of ADP dynamics with the ADP sensor; format: cell-based; settings: 200 μM DFHBI
Protocol: BL21-A Star E. coli cells (Invitrogen) were transformed with 40 ng of plasmid DNA expressing the tRNA-sensor chimeras in pET28c under the control of a T7 promoter. Cells were plated, grown overnight and single colonies were picked for inoculation in Luria Broth containing kanamycin (LB-Kan). At OD600=0.4, 1 mM of IPTG was added to the culture and shaking was continued at 37° C. for more 2 hours. 100 uL of culture was then removed, spun down to pelleted the culture, and resuspended in 2 mL of pH 6.0 M9 minimal media. A 200 μl aliquot of resuspended culture was then plated on poly-L-lysine (PLL)-coated 24-well glass-bottom dishes (MatTek) and incubated for 45 minutes at 37° C. Adherent cells were washed twice and then incubated with 200 μM DFHBI in pH 6.0 M9 minimal media for 45 min at 37° C. Cells then were washed twice and incubated with M9 media containing 200 μM DFHBI and the appropriate carbon source (2 mg/ml glucose, 6.65 mg/ml potassium acetate, 4.05 mg/ml glycerol or 5.51 mg/ml succinate). Live fluorescence images were taken with a CoolSnap HQ2 CCD camera through a 60× oil objective mounted on a Nikon TE2000 microscope and analyzed with the NIS-Elements software. The filter set used was a sputter coated filter cube with excitation filter 470/40, dichroic mirror 495 (long pass) and emission filter 525/50 (Chroma Technology).
Cells transformed with ADP sensor were grown overnight in LB-Kan. Cultures were then diluted to OD600=0.1 in 200 mL LB-Kan and grown to OD600=0.4. Cells were then induced for 2 hours with 1 mM IPTG at 37° C. with constant shaking. The entire culture was split in two samples and then placed in a centrifuged for 5 min at 1,000×g. Pellets were then washed once and resuspended in […] of M9 media containing 200 μM DFHBI and either 2.00 mg/ml glucose or 6.68 mg/ml potassium acetate as the carbon source. […] Aliquots of culture were removed every 30 min, pelleted, lysed, and ADP levels were measured with an ADP Fluorometric Assay Kit (Abcam) according to manufacturer's instructions.

[6] = test system: endogenous SAM levels in living E. coli cells; assay: Live cell imaging of SAM accumulation with the SAM sensor; format: cell-based; set-up: average increase in SAM levels upon treatment with methionine: dose or concentration left out as unconfirmed
Protocol: Expression of the SAM aptamer and intracellular imaging was performed as described above for the ADP sensor: BL21-A Star E. coli cells (Invitrogen) were transformed with 40 ng of plasmid DNA expressing the tRNA-sensor chimeras in pET28c under the control of a T7 promoter. Cells were plated, grown overnight and single colonies were picked for inoculation in LB-Kan. At OD600=0.4, 1 mM of IPTG was added to the culture and shaking was continued at 37° C. for more 2 hours. 100 μL of culture was then removed, spun down to pellet the culture, and resuspended in 2 mL of pH 6.0 M9 minimal media. A 200 μl aliquot of resuspended culture was then plated on PLL-coated 24-well glass-bottom dishes (MatTek) and incubated for 45 minutes at 37° C. Adherent cells were washed twice and then incubated with 200 μM DFHBI in pH 6.0 M9 minimal media for 2 hours at 37° C. Cells were then treated with methionine alone or methionine with inhibitors by adding 2 μl of a 100× stock of the compound to a final concentration of 50 μg/ml for L-methionine, 25 μM for adenosine periodate, and 2.5 μM for MT-DADMe-ImmA. Live fluorescence images were taken with a CoolSnap HQ2 CCD camera through a 60× oil objective mounted on a Nikon TE2000 microscope and analyzed with the NIS-Elements software. The filter set used was a sputter coated filter cube with excitation filter 470/40, dichroic mirror 495 (long pass) and emission filter 525/50 (Chroma Technology).
Cells transformed with SAM sensors were grown overnight in LB-Kan. Cultures were then diluted to OD600=0.1 in 200 mL LB-Kan and grown to OD600=0.4. Cells were then induced for 2 hours with 1 mM IPTG at 37° C. with constant shaking. The entire culture was centrifuged for 5 min at 1,000×g, pellets were resuspended and washed once with M9 media and then resuspended in […] of M9 media containing 200 μM DFHBI and divided into two samples. Methionine (50 μg/ml) or vehicle was then added to either sample and cultures were incubated between 32-37° C. 25 ml aliquots were removed from methionine- and vehicle-treated sample at each time point, centrifuged for 5 min at 1,000×g, and flash frozen in liquid nitrogen. Cells were thawed on ice and lysed by resuspending the pellet in 300 μl of cold 4% perchloric acid. Insoluble material was then pelleted by spinning at 1,000×g for 5 min and the supernatant was transferred to a dialysis spin column with a 10,000 molecular weight cut off (Amicon) and spun at 10,000×g for 10 min at 4° C. A portion of the flow through (50 μl) was then injected on a Zorbax C8 column (Agilent) on an Agilent 1100 HPLC. Samples were loaded and eluted for 15 min with an aqueous buffer containing 3.6% acetonitrile, 40 mM ammonium phosphate, and 5 mM sodium 1-heptanesulfonate which was brought to pH 5.0 with hydrochloric acid. After each sample was eluted, the column was washed with a gradient of 3.6-25% acetonitrile for 30 min prior to the next samples being injected. SAM standards were used to calibrate SAM levels measured using this assay.
Population analysis was carried out using NIS-Elements software. Individual cells in a captured field were manually traced as Region of Interests (ROIs) and tracked through the different time points of image capture. Fluorescence intensity was then calculated by dividing the total fluorescence by the area for each ROI, which gives the mean intensity per unit area. Fold increase in fluorescence over time is calculated as the ratio of mean intensity at a desired time point and at time zero. Values in fold increase in fluorescence over time are plotted as frequency distributions or further used in statistical analyses.

[7] = Spinach-based RNA sensor fluorescence in response to SAM; format: biochemical
Protocol: as §2, §3

[8] = Sensor activation rate, SAM sensor; format: biochemical; settings: 1 mM SAM, 37° C.
Protocol: as §1

[9] = target: streptavidin (Streptomyces avidinii, UniProt P22629); assay: Spinach-based protein sensor fluorescence activation; format: biochemical; settings: micromolar concentrations of protein, DFHBI included
Description: Using the same strategy from Example 5-7, a streptavidin aptamer (Srisawat and Engelke, “Streptavidin Aptamers: Affinity Tags for the Study of RNAs and Ribonucleoproteins, RNA 7:632-41 (2001), which is hereby incorporated by reference in its entirety) was fused to Spinach, and the transducer domain was optimized. The resulting RNA molecule is illustrated in FIG. 16A. The sensor was separately exposed to solutions containing micromolar concentrations of streptavidin, ovalalbumin, BSA, and lysozyme. […] Thus, the approach is generalizable not just to small molecules, but also proteins.

[10] = Emission and excitation of aptamer-DFAN complex; format: physicochemical; settings: aptamer with DFAN

streptavidin, sequence (P22629 25-183, species assumed): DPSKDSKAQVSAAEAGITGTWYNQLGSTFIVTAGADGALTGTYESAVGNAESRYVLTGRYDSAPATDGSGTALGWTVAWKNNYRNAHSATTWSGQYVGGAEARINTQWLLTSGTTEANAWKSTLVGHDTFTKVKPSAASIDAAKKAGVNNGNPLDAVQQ

CC1=NC(=Cc2ccc(O)cc2)C(=O)N1C [HBI, 4-(4-hydroxybenzylidene)-1,2-dimethyl-imidazol-5-one]
pKa [1]: 8.1

B1: Spinach: first generation derivative of 24-2, DFHBI-binding RNA aptamer (nucleic acid)
chain 1: GACGCGACUGAAUGAAAUGGUGAAGGACGGGUCCAGGUGUGGCUGCUUCGGCAGUGCAGCUUGUUGAGUAGAGUGUGAGCUCCGUAACUAGUCGCGUC
chain 2: B1 chain 1 with G6A
modifications: listed as RNA, chemistry not given here
photobleaching during continuous illumination [2]: remarkable resistance to photobleaching

B2: ADP sensor: Spinach-based turn-on RNA sensor for ADP, transducer stem 3 (nucleic acid)
chain: GACGCGACUGAAUGAAAUGGUGAAGGACGGGUCCAGCACGAGGGGGAAACCCCGGACAAUCAGACACGGUGCUUGUUGAGUAGAGUGUGAGCUCCGUAACUAGUCGCGUC
modifications: listed as RNA, chemistry not given here
time to increase in fluorescence after ADP addition [3]: less than 10 s
increase in fluorescence in the presence of ADP ([4]; 10 μM DFHBI, 1 mM ADP, versus no ADP): 20 fold and 18 fold
molecular discrimination: activation by ATP, AMP, cAMP, NAD+ ([4]; 1 mM competing molecules): negligibly activated; also recorded: specific for ADP
EC50 ([4]; dose-response, 10 μM fluorophore, read-out: half-maximal fluorescence (EC50), ADP): 270 µM
sensor fluorescence after switch to succinate or glycerol [5]: did not substantially increase fluorescence
increase in sensor fluorescence over baseline after switch from glucose to acetate media ([5]; by 3 hr): ~6 fold
increase in sensor fluorescence over baseline after switch from glucose to acetate media ([5]; within 30 min): 1.8 fold

B3: SAM sensor: Spinach-based turn-on RNA sensor for SAM, transducer stem 1 (nucleic acid)
chain: GACGCGACUGAAUGAAAUGGUGAAGGACGGGUCCACGAAAGGAUGGCGGAAACGCCAGAUGCCUUGUAACCGAAAGGGUUGUUGAGUAGAGUGUGAGCUCCGUAACUAGUCGCGUC
modifications: chemistry not given here
average increase in sensor fluorescence in methionine-treated cells ([6]; 50 μg/ml methionine, 3 hr): over 6 fold
average increase in SAM levels upon treatment with methionine ([6]; methionine, 180 min (FIG. 9D)): six-fold
increase in fluorescence in the presence of SAM ([7]; 10 μM DFHBI, 1 mM SAM, versus no SAM): 25 fold and 24 fold
molecular discrimination: fluorescence with methionine or adenosine ([7]; 1 mM): negligibly fluorescent; also recorded: negligible signal above background
molecular discrimination: fluorescence with SAH ([7]; 1 mM SAH): only minimal fluorescence; also recorded: negligible signal
EC50 ([7]; dose-response, 10 μM fluorophore, read-out: half-maximal fluorescence (EC50), SAM): 120 µM
time to maximal fluorescence after SAM addition ([8]; 1 μM RNA sensor, 10 μM DFHBI): ≤ 10 min
time to increase in fluorescence after SAM addition [8]: less than 10 s

B4: Spinach-streptavidin sensor: Spinach-based streptavidin sensor RNA molecule (nucleic acid)
chain: GACGCGACUGAAUGAAAUGGUGAAGGACGGGUCCACGACCGACCAGAAUCAUGCAAGUGCGUAAGAUAGUCGCGGGCCGGGGUUGUUGAGUAGAGUGUGAGCUCCGUAACUAGUCGCGUC
modifications: listed as RNA, chemistry not given here
notes: Spinach-based streptavidin sensor RNA molecule
fluorescence activation by BSA, ovalbumin or lysozyme [9]: fail to increase fluorescence above background levels
fluorescence activation by streptavidin [9]: specific fluorescence activation occurs only in solutions that contained streptavidin

B5: SEQ ID NO: 59: RNA aptamer listed for fluorophore DFAN (nucleic acid)
chain: GGGAGACGCAACUGAAUGAAAUACUUGGGAUGGUAAUGGCCUGGAGCUGCUUCGGCAGACCCGUGCAAGGACGUGGGAGAGGGGUCCGUAACUAGUCGCGUCAC
modifications: listed as RNA, chemistry not given here
Em [10]: Em = 550 nm
Ex [10]: Ex = 480 nm
